These results are taken from article PMC3501484.

In this experiment the target is Flk1 (UniProt P35918).
Sequence of UniProt P35918 (P35918 20-1345): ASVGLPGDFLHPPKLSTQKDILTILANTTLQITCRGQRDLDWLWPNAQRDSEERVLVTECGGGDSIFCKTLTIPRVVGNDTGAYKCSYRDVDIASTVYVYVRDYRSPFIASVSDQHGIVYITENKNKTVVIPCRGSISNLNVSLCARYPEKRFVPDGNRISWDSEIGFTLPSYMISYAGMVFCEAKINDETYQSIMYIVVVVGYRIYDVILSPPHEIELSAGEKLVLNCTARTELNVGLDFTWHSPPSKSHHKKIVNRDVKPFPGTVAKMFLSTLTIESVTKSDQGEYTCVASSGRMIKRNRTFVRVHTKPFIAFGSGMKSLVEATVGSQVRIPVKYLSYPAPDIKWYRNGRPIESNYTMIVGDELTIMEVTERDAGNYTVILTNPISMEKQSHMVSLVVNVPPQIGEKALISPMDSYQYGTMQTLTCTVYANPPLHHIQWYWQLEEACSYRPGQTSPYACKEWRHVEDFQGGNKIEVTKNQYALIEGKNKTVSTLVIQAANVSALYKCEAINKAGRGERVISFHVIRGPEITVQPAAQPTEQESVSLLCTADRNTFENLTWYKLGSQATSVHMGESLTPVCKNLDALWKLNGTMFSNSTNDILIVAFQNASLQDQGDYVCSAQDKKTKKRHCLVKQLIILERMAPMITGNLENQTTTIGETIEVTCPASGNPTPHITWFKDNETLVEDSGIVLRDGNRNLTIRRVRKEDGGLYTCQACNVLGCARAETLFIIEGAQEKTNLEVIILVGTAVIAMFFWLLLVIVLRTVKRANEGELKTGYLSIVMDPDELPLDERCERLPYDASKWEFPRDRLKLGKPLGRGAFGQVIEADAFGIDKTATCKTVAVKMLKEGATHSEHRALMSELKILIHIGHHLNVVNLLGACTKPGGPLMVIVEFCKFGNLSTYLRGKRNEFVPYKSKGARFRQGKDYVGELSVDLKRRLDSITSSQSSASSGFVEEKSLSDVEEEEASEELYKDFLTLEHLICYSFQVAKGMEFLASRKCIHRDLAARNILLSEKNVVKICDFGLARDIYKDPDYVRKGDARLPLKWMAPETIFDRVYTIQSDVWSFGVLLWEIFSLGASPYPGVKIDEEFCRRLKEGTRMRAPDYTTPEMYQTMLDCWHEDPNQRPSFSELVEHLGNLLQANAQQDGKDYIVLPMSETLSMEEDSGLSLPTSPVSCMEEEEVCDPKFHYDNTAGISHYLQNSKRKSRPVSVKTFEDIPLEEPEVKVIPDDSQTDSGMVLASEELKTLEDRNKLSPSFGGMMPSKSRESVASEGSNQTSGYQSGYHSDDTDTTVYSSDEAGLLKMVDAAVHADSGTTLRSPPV

Regarding VEGF 165 (ligand), the 3.9 kb Etv2 luciferase reporter (standardized to Renilla) in 293T cells cotransfected with the Flk1 expression vector, VEGF 50 ng/ml for 2, 6 or 18 hours is 15 fold.
